The target of the assay is mouse PCDH15 EC1+2 (wild type) (mouse, UniProt Q99PJ1 27-259). In words: ITC. (In general: In ITC the heat of successive injections is recorded.)

B1: mouse CDH23 EC1+2 (domain or fragment)
chain: QVNRLPFFTNHFFDTYLLISEDTPVGSSVTQLLARDMDNDPLVFGVSGEEASRFFAVEPDTGVVWLRQPLDRETKSEFTVEFSVSDHQGVITRKVNIQVGDVNDNAPTFHNQPYSVRIPENTPVGTPIFIVNATDPDLGAGGSVLYSFQPPSPFFAIDSARGIVTVIQELDYEVTQAYQLTVNATDQDKTRPLSTLANLAIIITD
In the case of B1, the binding result is on record as “binds”.

Values taken from publication PMC3618968 (The Journal of neuroscience : the official journal of the …, 2013).
